# In article PMC3967765 (Archives of biochemistry and biophysics, 2014):
# T1: huCOX-2 (human cyclooxygenase-2) (Homo sapiens, UniProt P35354, N580A)
# T1 sequence (P35354 18-604 N580A): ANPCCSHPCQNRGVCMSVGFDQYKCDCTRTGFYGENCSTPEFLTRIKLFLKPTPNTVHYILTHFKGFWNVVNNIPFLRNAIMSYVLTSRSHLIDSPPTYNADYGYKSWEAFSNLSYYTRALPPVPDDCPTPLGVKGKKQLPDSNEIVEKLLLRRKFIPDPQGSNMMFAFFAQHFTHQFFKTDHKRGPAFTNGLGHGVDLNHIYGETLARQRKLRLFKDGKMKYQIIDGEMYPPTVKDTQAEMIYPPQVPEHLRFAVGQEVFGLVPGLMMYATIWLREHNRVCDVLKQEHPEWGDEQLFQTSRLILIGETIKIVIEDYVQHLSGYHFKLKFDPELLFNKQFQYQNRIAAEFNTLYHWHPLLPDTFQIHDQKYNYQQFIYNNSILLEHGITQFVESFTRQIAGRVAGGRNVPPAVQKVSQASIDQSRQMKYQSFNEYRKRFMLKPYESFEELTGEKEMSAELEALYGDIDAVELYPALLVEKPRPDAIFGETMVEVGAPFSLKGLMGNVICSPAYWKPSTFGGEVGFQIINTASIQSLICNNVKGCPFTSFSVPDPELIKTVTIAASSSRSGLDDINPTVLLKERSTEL
# Tests used:
# [1] = biological target: T1, huCOX-2 (human cyclooxygenase-2); conditions: oxygen electrode
# [2] = biological target: T1, huCOX-2 (human cyclooxygenase-2)
# [3] = substrate: CC/C=C\C/C=C\C/C=C\C/C=C\C/C=C\CCCC(=O)O; assay: purified protein; conditions: heme (Fe3+-protoporphyrin IX)
# [4] = substrate: CCCCC/C=C\C/C=C\C/C=C\C/C=C\CCCC(=O)OCC(O)CO; assay: purified protein; conditions: heme (Fe3+-protoporphyrin IX)
# [5] = substrate: CCCCC/C=C\C/C=C\C/C=C\C/C=C\CCCC(=O)O; assay: purified protein; conditions: heme (Fe3+-protoporphyrin IX)
# [6] = biological target: the molecule itself; assay: SEC
molecule,measurement,setting,value
"COc1ccc2cc([C@H](C)C(=O)O)ccc2c1 [Napx, naproxen]",% loss of activity,[1],60-70 % loss of activity
"Cc1ccc(Cl)c(Nc2ccccc2C(=O)O)c1Cl [Meclo, meclofenamic acid]","oxygen electrode, 50 μM inhibitor, 30 min pre-incubation",[2],"Flurbiprofen, indomethacin, meclofenamic acid, and celecoxib caused near complete inhibition of cyclooxygenase activity."
"FLAG N580A murine (mu) COX-2 (enzyme, UniProt Q05769 18-604, looked up) ANPCCSNPCQNRGECMSTGFDQYKCDCTRTGFYGENCTTPEFLTRIKLLLKPTPNTVHYILTHFKGVWNIVNNIPFLRSLIMKYVLTSRSYLIDSPPTYNVHYGYKSWEAFSNLSYYTRALPPVADDCPTPMGVKGNKELPDSKEVLEKVLLRREFIPDPQGSNMMFAFFAQHFTHQFFKTDHKRGPGFTRGLGHGVDLNHIYGETLDRQHKLRLFKDGKLKYQVIGGEVYPPTVKDTQVEMIYPPHIPENLQFAVGQEVFGLVPGLMMYATIWLREHNRVCDILKQEHPEWGDEQLFQTSRLILIGETIKIVIEDYVQHLSGYHFKLKFDPELLFNQQFQYQNRIASEFNTLYHWHPLLPDTFNIEDQEYSFKQFLYNNSILLEHGLTQFVESFTRQIAGRVAGGRNVPIAVQAVAKASIDQSREMKYQSLNEYRKRFSLKPYTSFEELTGEKEMAAELKALYSDIDVMELYPALLVEKPRPDAIFGETMVELGAPFSLKGLMGNPICSPQYWKPSTFGGEVGFKIINTASIQSLICNNVKGCPFTSFNVQDPQPTKTATIAASASHSRLDDINPTVLIKRRSTEL",Km,[3],1.9 µM
same,kcat,[3],6.3 s⁻¹
same,kcat/Km,[3],3.3e+06 M⁻¹ s⁻¹
same,Km,[4],6.8 µM
same,kcat,[4],30.9 ± 0.7 s⁻¹
same,kcat/Km,[4],4.5e+06 M⁻¹ s⁻¹
same,Km,[5],6.8 µM
same,kcat,[5],36.1 s⁻¹
same,kcat/Km,[5],5.3e+06 M⁻¹ s⁻¹
same,stoichiometry N,[6],2
